Experimental data: article doi:10.1101/2020.04.06.028423 (bioRxiv, 2020)

T1: His-tagged VP35 IID (VP35 aa 215-340) (Ebola virus (EBOV), UniProt Q05127 215-340)
T1 sequence: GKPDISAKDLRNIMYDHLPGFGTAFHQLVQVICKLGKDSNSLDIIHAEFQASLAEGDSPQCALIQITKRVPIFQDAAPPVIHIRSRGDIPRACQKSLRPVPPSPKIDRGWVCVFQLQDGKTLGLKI


Biological target: T1, His-tagged VP35 IID (VP35 aa 215-340)
Test: pull-down

| Binder | binding result |
| --- | --- |
| GST-NP(412-500) (domain or fragment) ASLPKTSGHYDDDDDIPFPGPINDDDNPGHQDDDPTDSQDTTIPDVVVDPDDGSYGEYQSYSENGMNAPDDLVLFDLDEDDEDTKPVPN | binds |
| DDLVLFDLDEDDEDTKPVPN (domain or fragment) [GST-NP(481-500)] | binds |
| DDLVLFDLDEDDED (domain or fragment) [GST-NP(481-494)] | binds |
